This is an account of results in article PMC11822394, “CsNAC17 enhances resistance to Colletotrichum gloeosporioides by interacting with CsbHLH62 in Camellia sinensis”.

In the data set the target is T1, CsNAC17 (Camellia sinensis, UniProt A0A4S4ETT7 1-357).
T1 chain: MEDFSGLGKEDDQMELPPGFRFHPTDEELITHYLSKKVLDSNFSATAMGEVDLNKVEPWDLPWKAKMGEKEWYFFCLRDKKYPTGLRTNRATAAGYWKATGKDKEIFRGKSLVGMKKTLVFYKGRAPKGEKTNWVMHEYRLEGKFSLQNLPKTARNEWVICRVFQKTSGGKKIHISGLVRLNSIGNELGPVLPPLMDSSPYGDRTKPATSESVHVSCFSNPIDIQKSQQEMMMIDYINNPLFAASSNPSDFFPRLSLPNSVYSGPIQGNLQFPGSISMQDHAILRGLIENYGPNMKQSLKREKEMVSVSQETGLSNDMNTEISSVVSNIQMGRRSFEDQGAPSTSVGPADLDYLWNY
In words: EMSA; LightShift Chemiluminescent EMSA Kit; buffer, salt, pH and temperature not stated. Particulars: protein: recombinant; tags: GST (pGEX-6p-1); chain copies: 0; label: biotin (hot probe); blunt. A general note: A gel shift assay detects complexes by their altered migration in electrophoresis.

B1: ProCsRPM1-CACG probe (dsDNA)
DNA 1: CTACGTAGCACGGTCCTATT
DNA 2: AATAGGACCGTGCTACGTAG
Take B1: the binding result is given as “binds”.

B2: ProCsRPM1-CATGTG probe (dsDNA)
DNA 1: TTTTAGACATGTGTTTCCCA
DNA 2: TGGGAAACACATGTCTAAAA
In the case of B2, the binding result was “binds”.
